Results as given in the supplement of paper PMC10724198.

Tests used:
Saccharomyces cerevisiae [1] = experiment: protein stability index of tFT-peptide fusion in wild type (PSI (0-1 scale)); higher = more stable (slower turnover); conditions: genetic background: wild type
Method: (§1)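 MPS profiling in S. cerevisiae of two library types built from selected 12-aa C-degron peptides (IN1, IN2, LN1, LN3, VN2, R1-R5, W1-W3, Atg1 and Rpa12 C-termini): saturation mutagenesis libraries and C-terminal +1 capping libraries (13 aa). Each peptide is fused to the C-terminus of a sfGFP-mCherry timer, after a GGGS linker. Cells are FACS-sorted into 8 mCherry/sfGFP bins and sequenced. PSI runs from 0 (unstable) to 1 (stable), measured once in wild type and in the das1Δ or doa10Δ background.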

Saccharomyces cerevisiae [2] = experiment: protein stability index of tFT-peptide fusion in deletion strain of DAS1 (PSI (0-1 scale)); higher = more stable (slower turnover)
Method: as §1
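Throughout, for protein stability index of tFT-peptide fusion in deletion strain of DAS1: PSI is a weighted mean of each variant's read distribution over the sorted stability bins, computed only for variants having over 10 reads in total.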
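Throughout, for protein stability index of tFT-peptide fusion in wild type: PSI derived as read-weighted mean over the 8 sorting bins, only variants exceeding 10 total reads kept, mCherry placed adjacent to the peptide and sfGFP distal.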

Sequence	protein stability index (Saccharomyces cerevisiae [1])	protein stability index (Saccharomyces cerevisiae [2])
LKILRQKMNMQN	0.281	0.641
LKILRQVMNHQN	0.315	0.663
LKIMRQKMNHQN	0.23	0.664
LKLLRQKMNHQN	0.208	0.682
LKVLRQKMNHQN	0.177	0.675
LMVYLSCVACIN	0.0204	0.0607
LNILRQKMNHQN	0.121	0.622
LPILRQKMNHQN	0.125	0.683
LPVYLSCVACIN	0.055	0.19
LTILRQKMNHQN	0.123	0.679
LVLYLSCVACIN	0.0137	0.0273
LVQYLSCVACIN	0.0238	0.18
LVVCLSCVACIN	0.0139	0.034
LVVGLSCVACIN	0.159	0.215
LVVMLSCVACIN	0.0128	0.0276
LVVYLLCVACIN	0.0159	0.0739
LVVYLSCAACIN	0.0321	0.166
LVVYLSCEACIN	0.0807	0.0235
LVVYLSCKACIN	0.0136	0.0225
LVVYLSCVACAN	0.0124	0.0251
LVVYLSCVACIC	0.0144	0.0309
LVVYLSCVACID	0.0162	0.0175
LVVYLSCVACINI	0.0206	0.0321
LVVYLSCVACINK	0.0222	0.0356

Sequence	protein stability index (Saccharomyces cerevisiae [1])	protein stability index (Saccharomyces cerevisiae [2])
LVVYLSCVACINT	0.0205	0.0331
LVVYLSCVACINY	0.0212	0.0337
LVVYLSCVACIQ	0.0107	0.0327
LVVYLSCVACIS	0.014	0.0369
LVVYLSCVACIV	0.0146	0.0299
LVVYLSCVAKIN	0.0143	0.0401
LVVYLSCVALIN	0.0158	0.0501
LVVYLSCVHCIN	0.0533	0.251
LVVYLSCVSCIN	0.0143	0.0441
LVVYNSCVACIN	0.245	0.406
LVVYQSCVACIN	0.216	0.339
LVVYTSCVACIN	0.0172	0.0606
PDKMNHLIKLLN	0.111	0.614
PDKRNHLIKCLN	0.169	0.634
PDKRNHLIKLEN	0.611	0.603
PDKRNHLIKLLG	0.238	0.614
PDKRNHLIKLLK	0.758	0.611
PDKRNHLIKLLND	0.638	0.664
PDKRNHLIKLLNP	0.663	0.672
PDKRNHLIKVLN	0.186	0.577
PDKRNHLIRLLN	0.144	0.614
PDKRNHLLKLLN	0.157	0.6
PDKRRHLIKLLN	0.115	0.605
PDLAASFWRVVG	0.151	0.708

Sequence	protein stability index (Saccharomyces cerevisiae [1])	protein stability index (Saccharomyces cerevisiae [2])
PDNRNHLIKLLN	0.171	0.604
PDTRNHLIKLLN	0.183	0.59
PGKRNHLIKLLN	0.127	0.585
PHLAASFWRVVG	0.148	0.698
PLIQPLPVQFLN	0.0682	0.604
PSDAASFWRVVG	0.187	0.702
PSLAAKFWRVVG	0.149	0.681
PSLAASDWRVVG	0.627	0.68
PSLAASFWCVVG	0.47	0.687
PSLAASFWDVVG	0.694	0.708
PSLAASFWRHVG	0.181	0.704
PSLAASFWRKVG	0.131	0.688
PSLAASFWRVVGI	0.667	0.696
PSLAASFWRVVGS	0.234	0.697
PSLAASPWRVVG	0.519	0.683
PSLADSFWRVVG	0.586	0.688
PSLAMSFWRVVG	0.146	0.673
PSLHASFWRVVG	0.157	0.684
PSLVASFWRVVG	0.137	0.686
PSSAASFWRVVG	0.143	0.696
QSMRWTFRYWVN	0.047	0.691
RHIQPLPVQFLN	0.167	0.588
RKIQPLPVQFLN	0.0533	0.616
RLIIPLPVQFLN	0.018	0.551

Sequence	protein stability index (Saccharomyces cerevisiae [1])	protein stability index (Saccharomyces cerevisiae [2])
RLIQALPVQFLN	0.0525	0.683
RLIQPAPVQFLN	0.0579	0.612
RLIQPLDVQFLN	0.225	0.617
RLIQPLEVQFLN	0.163	0.665
RLIQPLPQQFLN	0.0631	0.642
RLIQPLPRQFLN	0.19	0.596
RLIQPLPSQFLN	0.106	0.613
RLIQPLPVQCLN	0.173	0.478
RLIQPLPVQFAN	0.353	0.62
RLIQPLPVQFGN	0.63	0.611
RLIQPLPVQFLNE	0.659	0.676
RLIQPLPVQFLNQ	0.65	0.673
RLIQPLPVQFLW	0.621	0.565
RLIQPLPVQLLN	0.0606	0.577
RLIQPLVVQFLN	0.045	0.587
RLIVPLPVQFLN	0.0525	0.607
RLPQPLPVQFLN	0.118	0.631
RSMRWTFRYWVN	0.0703	0.659
SVVYLSCVACIN	0.0146	0.0314
TKHKKGQKQKIN	0.118	0.639
TLIQPLPVQFLN	0.102	0.576
VEGAVGGWRLVG	0.159	0.685
VFGAVGGWRLVG	0.134	0.698
VHGAVGGWRLVG	0.136	0.692

Sequence	protein stability index (Saccharomyces cerevisiae [1])	protein stability index (Saccharomyces cerevisiae [2])
VMGAVGGWRLVG	0.118	0.681
VRGAAGGWRLVG	0.164	0.689
VRGADGGWRLVG	0.438	0.685
VRGAPGGWRLVG	0.165	0.684
VRGAVGGCRLVG	0.633	0.692
VRGAVGGERLVG	0.65	0.698
VRGAVGGGRLVG	0.564	0.682
VRGAVGGWFLVG	0.626	0.673
VRGAVGGWNLVG	0.198	0.679
VRGAVGGWRGVG	0.602	0.673
VRGAVGGWRLLG	0.164	0.658
VRGAVGGWRLNG	0.234	0.679
VRGAVGGWRLQG	0.153	0.649
VRGAVGGWRLRG	0.636	0.679
VRGAVGGWRLVE	0.726	0.663
VRGAVGGWRLVGH	0.668	0.671
VRGAVGGWRLVGL	0.665	0.675
VRGAVGGWRLVI	0.215	0.685
VRGAVGGWRLVM	0.321	0.661
VRGAVGGWRLVP	0.436	0.686
VRGAVGGWRLVT	0.184	0.675
